Reference: article PMC5509376 (PLoS Pathogens, 2017)

Target: T1, VPS10P domain of sortilin fused with GST (mouse, UniProt Q6PHU5 76-750)
T1 construct: also called GST-VPS10P; GST-tagged VPS10P domain of sortilin
T1 sequence (looked up): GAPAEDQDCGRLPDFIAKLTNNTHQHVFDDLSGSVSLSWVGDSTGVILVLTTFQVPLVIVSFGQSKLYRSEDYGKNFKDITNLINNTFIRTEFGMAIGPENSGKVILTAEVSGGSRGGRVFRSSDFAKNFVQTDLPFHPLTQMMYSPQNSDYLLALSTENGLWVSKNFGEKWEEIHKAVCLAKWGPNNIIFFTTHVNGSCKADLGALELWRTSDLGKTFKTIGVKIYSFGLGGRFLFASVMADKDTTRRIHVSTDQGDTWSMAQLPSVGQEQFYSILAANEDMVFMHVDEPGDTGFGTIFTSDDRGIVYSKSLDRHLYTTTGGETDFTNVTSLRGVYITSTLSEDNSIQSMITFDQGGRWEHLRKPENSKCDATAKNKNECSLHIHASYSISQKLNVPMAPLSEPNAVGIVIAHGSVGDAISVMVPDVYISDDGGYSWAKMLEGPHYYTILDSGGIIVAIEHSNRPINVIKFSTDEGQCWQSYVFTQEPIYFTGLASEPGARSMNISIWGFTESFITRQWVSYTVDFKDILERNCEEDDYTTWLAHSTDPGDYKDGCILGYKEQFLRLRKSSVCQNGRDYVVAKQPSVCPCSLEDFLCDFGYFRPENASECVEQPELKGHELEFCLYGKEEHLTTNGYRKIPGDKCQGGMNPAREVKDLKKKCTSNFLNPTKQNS
Test: pull-down
Conditions: both partners purified

B1: His-tagged full-length recombinant PrP (natural protein)
chain: not shown
binding result: binds
